Assay results published in the supplement of paper PMC11246515.
± gives the standard deviation of the averaged measurements.

Experiment: total protein half-life in vivo (active degradation + dilution); higher = more stable protein
[1] = E. coli NCM3722 delta-clpP delta-lon delta-hslV, growth: N-lim chemostat, doubling time 6 h
[2] = E. coli NCM3722 delta-clpP, growth: N-lim chemostat, doubling time 6 h
[3] = E. coli NCM3722 delta-hslV, growth: N-lim chemostat, doubling time 6 h
[4] = E. coli NCM3722 delta-lon, growth: N-lim chemostat, doubling time 6 h
[5] = E. coli NCM3722 delta-smpB, growth: N-lim chemostat, doubling time 6 h
[6] = wild type E. coli NCM3722, growth: C-lim chemostat, doubling time 3 h
[7] = wild type E. coli NCM3722, growth: C-lim chemostat, doubling time 6 h
[8] = wild type E. coli NCM3722, growth: C-lim chemostat, doubling time 12 h
[9] = wild type E. coli NCM3722, growth: N-lim chemostat, doubling time 6 h
[10] = wild type E. coli NCM3722, growth: N-lim chemostat, doubling time 12 h
[11] = wild type E. coli NCM3722, growth: P-lim chemostat, doubling time 6 h
[12] = wild type E. coli NCM3722, growth: P-lim chemostat, doubling time 12 h

Sequence	total protein half-life in vivo [1] [h]	total protein half-life in vivo [2] [h]	total protein half-life in vivo [3] [h]	total protein half-life in vivo [4] [h]	total protein half-life in vivo [5] [h]	total protein half-life in vivo [6] [h]	total protein half-life in vivo [7] [h]	total protein half-life in vivo [8] [h]	total protein half-life in vivo [9] [h]	total protein half-life in vivo [10] [h]	total protein half-life in vivo [11] [h]	total protein half-life in vivo [12] [h]
MTTHLVWFRQDLRLHDNLALAAACRNSSARVLALYIATPRQWATHNMSPRQAELINAQLNGLQIALAEKGIPLLFREVDDFVASVEIVKQVCAENSVTHLFYNYQYEVNERARDVEVERALRNVVCEGFDDSVILPPGAVMTGNHEMYKVFTPFKNAWLKRLREGMPECVAAPKVRSSGSIEPSPSITLNYPRQSFDTAHFPVEEKAAIAQLRQFCQNGAGEYEQQRDFPAVEGTSRLSASLATGGLSPRQCLHRLLAEQPQALDGGAGSVWLNELIWREFYRHLITYHPSLCKHRPFIAWTDRVQWQSNPAHLQAWQEGKTGYPIVDAAMRQLNSTGWMHNRLRMITASFLVKDLLIDWREGERYFMSQLIDGDLAANNGGWQWAASTGTDAAPYFRIFNPTTQGEKFDHEGEFIRQWLPELRDVPGKVVHEPWKWAQKAGVTLDYPQPIVEHKEARVQTLAAYEAARKGK	5.62 ± 0.31	6.1 ± 1	6.2 ± 0.4	6.08 ± 0.8	5.35 ± 0.34	3.23 ± 0.22	6.25 ± 0.49	11.533 ± 0.011	5.49 ± 0.16	11.1 ± 0.21	6.17 ± 0.76	11.62 ± 0.014
MSAFKKSLLVAGVAMILSNNVFADEGHGIVKFKGEVISAPCSIKPGDEDLTVNLGEVADTVLKSDQKSLAEPFTIHLQDCMLSQGGTTYSKAKVTFTTANTMTGQSDLLKNTKETEIGGATGVGVRILDSQSGEVTLGTPVVITFNNTNSYQELNFKARMESPSKDATPGNVYAQADYKIAYE	5.72	5.47	5.25	–	3.96 ± 0.24	1.78	–	–	–	–	–	–
MFQLSVQDIHPGEKAGDKEEAIRQVAAALVQAGNVAEGYVNGMLAREQQTSTFLGNGIAIPHGTTDTRDQVLKTGVQVFQFPEGVTWGDGQVAYVAIGIAASSDEHLGLLRQLTHVLSDDSVAEQLKSATTAEELRALLMGEKQSEQLKLDNEMLTLDIVASDLLTLQALNAARLKEAGAVDATFVTKAINEQPLNLGQGIWLSDSAEGNLRSAIAVSRAANAFDVDGETAAMLVSVAMNDDQPIAVLKRLADLLLDNKADRLLKADAATLLALLTSDDAPTDDVLSAEFVVRNEHGLHARPGTMLVNTIKQFNSDITVTNLDGTGKPANGRSLMKVVALGVKKGHRLRFTAQGADAEQALKAIGDAIAAGLGEGA	6.229 ± 0.029	5.64 ± 0.69	5.85 ± 0.086	6.16 ± 0.26	5.94 ± 0.085	2.96 ± 0.13	5.74 ± 0.56	12.3 ± 1.2	5.99 ± 0.57	–	5.71 ± 0.078	11.97 ± 0.033
MSFDSLGLSPDILRAVAEQGYREPTPIQQQAIPAVLEGRDLMASAQTGTGKTAGFTLPLLQHLITRQPHAKGRRPVRALILTPTRELAAQIGENVRDYSKYLNIRSLVVFGGVSINPQMMKLRGGVDVLVATPGRLLDLEHQNAVKLDQVEILVLDEADRMLDMGFIHDIRRVLTKLPAKRQNLLFSATFSDDIKALAEKLLHNPLEIEVARRNTASDQVTQHVHFVDKKRKRELLSHMIGKGNWQQVLVFTRTKHGANHLAEQLNKDGIRSAAIHGNKSQGARTRALADFKSGDIRVLVATDIAARGLDIEELPHVVNYELPNVPEDYVHRIGRTGRAAATGEALSLVCVDEHKLLRDIEKLLKKEIPRIAIPGYEPDPSIKAEPIQNGRQQRGGGGRGQGGGRGQQQPRRGEGGAKSASAKPAEKPSRRLGDAKPAGEQQRRRRPRKPAAAQ	4.67 ± 1.2	5.49 ± 0.3	5.007 ± 0.03	5.23 ± 1.5	4.98 ± 0.23	3.12	7.2	14.7 ± 0.98	5.3 ± 0.071	8.71 ± 0.062	4.83 ± 0.43	9.31 ± 0.65
MTTLTLVLTAVGSVLLLLFLVMKARMHAFLALMVVSMGAGLFSGMPLDKIAATMEKGMGGTLGFLAVVVALGAMFGKILHETGAVDQIAVKMLKSFGHSRAHYAIGLAGLVCALPLFFEVAIVLLISVAFSMARHTGTNLVKLVIPLFAGVAAAAAFLVPGPAPMLLASQMNADFGWMILIGLCAAIPGMIIAGPLWGNFISRYVELHIPDDISEPHLGEGKMPSFGFSLSLILLPLVLVGLKTIAARFVPEGSTAYEWFEFIGHPFTAILVACLVAIYGLAMRQGMPKDKVMEICGHALQPAGIILLVIGAGGVFKQVLVDSGVGPALGEALTGMGLPIAITCFVLAAAVRIIQGSATVACLTAVGLVMPVIEQLNYSGAQMAALSICIAGGSIVVSHVNDAGFWLFGKFTGATEAETLKTWTMMETILGTVGAIVGMIAFQLLS [P0AC96]	–	6.49	5.93	–	–	–	–	–	5.18	–	–	12.9
MSSFDYLKTAIKQQGCTLQQVADASGMTKGYLSQLLNAKIKSPSAQKLEALHRFLGLEFPRQKKTIGVVFGKFYPLHTGHIYLIQRACSQVDELHIIMGFDDTRDRALFEDSAMSQQPTVPDRLRWLLQTFKYQKNIRIHAFNEEGMEPYPHGWDVWSNGIKKFMAEKGIQPDLIYTSEEADAPQYMEHLGIETVLVDPKRTFMSISGAQIRENPFRYWEYIPTEVKPFFVRTVAILGGESSGKSTLVNKLANIFNTTSAWEYGRDYVFSHLGGDEIALQYSDYDKIALGHAQYIDFAVKYANKVAFIDTDFVTTQAFCKKYEGREHPFVQALIDEYRFDLVILLENNTPWVADGLRSLGSSVDRKEFQNLLVEMLEENNIEFVRVEEEDYDSRFLRCVELVREMMGEQR	5.91 ± 0.15	–	5.88 ± 0.4	6.4 ± 0.35	5.71 ± 0.23	2.975 ± 0.013	5.76 ± 0.61	10.5 ± 1.5	5.3 ± 0.24	10.6 ± 1.9	5.97 ± 0.31	10.8 ± 0.14
MFNSDNLRLDGKCAIITGAGAGIGKEIAITFATAGASVVVSDINADAANHVVDEIQQLGGQAFACRCDITSEQELSALADFAISKLGKVDILVNNAGGGGPKPFDMPMADFRRAYELNVFSFFHLSQLVAPEMEKNGGGVILTITSMAAENKNINMTSYASSKAAASHLVRNMAFDLGEKNIRVNGIAPGAILTDALKSVITPEIEQKMLQHTPIRRLGQPQDIANAALFLCSPAASWVSGQILTVSGGGVQELN [P0AET8]	4.91 ± 0.11	4.39 ± 0.73	4.72 ± 0.18	5.48 ± 0.66	4.27 ± 0.21	3.53 ± 0.6	5.51 ± 1.1	10.2 ± 1.2	4.57 ± 0.14	7.309 ± 0.022	5.64 ± 0.42	11.8 ± 0.3
MGHKPLYRQIADRIREQIARGELKPGDALPTESALQTEFGVSRVTVRQALRQLVEQQILESIQGSGTYVKEERVNYDIFQLTSFDEKLSDRHVDTHSEVLIFEVIPADDFLQQQLQITPQDRVWHVKRVRYRKQKPMALEETWMPLALFPDLTWQVMENSKYHFIEEVKKMVIDRSEQEIIPLMPTEEMSRLLNISQTKPILEKVSRGYLVDGRVFEYSRNAFNTDDYKFTLIAQRKSSR	5.56 ± 0.42	5.47 ± 0.059	5.26 ± 0.32	4.83 ± 0.42	4.99 ± 0.07	2.985 ± 0.0092	–	–	5.354 ± 0.041	9.53 ± 0.028	5.8 ± 0.12	12.1 ± 1.1
MKDVVDKCSTKGCAIDIGTVIDNDNCTSKFSRFFATREEAESFMTKLKELAAATSSADEGASVAYKIKDLEGQVELDAAFTFSCQAEMIIFELSLRSLA	5.09 ± 0.21	4.2	2.6 ± 0.38	2.85 ± 0.098	2.09 ± 0.23	2.11 ± 0.4	4.95 ± 1.9	5.78 ± 0.33	2.26 ± 0.19	3.38 ± 0.55	4 ± 0.22	7.6436 ± 0.0046
MASSNLIKQLQERGLVAQVTDEEALAERLAQGPIALYCGFDPTADSLHLGHLVPLLCLKRFQQAGHKPVALVGGATGLIGDPSFKAAERKLNTEETVQEWVDKIRKQVAPFLDFDCGENSAIAANNYDWFGNMNVLTFLRDIGKHFSVNQMINKEAVKQRLNREDQGISFTEFSYNLLQGYDFACLNKQYGVVLQIGGSDQWGNITSGIDLTRRLHQNQVFGLTVPLITKADGTKFGKTEGGAVWLDPKKTSPYKFYQFWINTADADVYRFLKFFTFMSIEEINALEEEDKNSGKAPRAQYVLAEQVTRLVHGEEGLQAAKRITECLFSGSLSALSEADFEQLAQDGVPMVEMEKGADLMQALVDSELQPSRGQARKTIASNAITINGEKQSDPEYFFKEEDRLFGRFTLLRRGKKNYCLICWK [P0AGJ9]	5.31 ± 0.33	5.55 ± 0.44	5.61 ± 0.41	5.87 ± 0.23	5.58 ± 0.69	3.11 ± 0.094	6.32 ± 0.36	–	5.51 ± 0.065	10.5 ± 0.76	6.271 ± 0.031	12.2 ± 0.76
MKNIRYIDKKDVENLIENKISDDVIIFLSGPTSQKTPLSVLRTKDIIAVNGSAQYLLSNNIVPFIYVLTDVRFLHQRRDDFYKFSQRSRYTIVNVDVYEHASKEDKLYILQNCLVLRSFYRREKGGFIKKIKFNILRQIHKELLISVPLSKKGRLVGFCKDISLGYCSCHTIAFAAIQIAYSLKYARIICSGLDLTGSCSRFYDENKNPMPSELSRDLFKILPFFRFMHDNVKDINIYNLSDDTAISYDVIPFIKLQDISAEESKDMTRKKMQYRTSTDSYAN	5.01 ± 0.085	4.65 ± 0.19	–	3.32 ± 0.14	3.714 ± 0.0057	1.67 ± 0.44	1.52 ± 0.34	1.73 ± 0.45	3.52	6.11 ± 0.77	1.84 ± 0.14	4.15 ± 0.71
